Measured values taken from patent US20170281809A1 (Novo Nordisk, published 2017).
Residue numbers refer to the chain shown, from its start. Numbers in names are those of the source. Where “and” joins values, the source holds several entries; their conditions need not be identical. Equal values may be shown once. Each block holds one binder with its values, some of them ahead of it.

What was measured:
[1] = biological target: single-chain NKG2A-CD94-mFc construct (human) (UniProt Q13241); experiment: SPR (Biacore T100); sc-NKG2A-CD94-mFc amine-coupled to CM5 chip, antibody 0.157-2.5 nM as analyte
[2] = biological target: T1, CD94/NKG2A on cells (Ba/F3-CD94/NKG2A; NKL cells) (human, UniProt Q13241 1-179); experiment: flow cytometry on Ba/F3-CD94/NKG2A cells, no HLA-E tetramer pre-incubation, APC-conjugated secondary antibody
T1 construct: whole, on cells
Description: To test whether humZ270VL1/VH1 prevents ligand (i.e. HLA-E) binding to CD94/NKG2A, we analyzed whether humZ270 could prevent the binding of HLA-E tetramers to CD94/NKG2A over-expressing Ba/F3 cells (Ba/F3-CD94/NKG2A). For this, Ba/F3-CD94/NKG2A were incubated with 1) various concentrations of humZ270 or 2) first incubated with a saturing concentration of HLA-E tetramers (4.7 μg/ml) and then incubated with various concentrations of humZ270. All incubations were performed in tissue-culture medium containing 2% FCS, on ice. Subsequently, cells were incubated with APC-conjugated secondary antibodies specific for mouse Ab's, and analyzed by flow cytometry using a BD Biosciences FACSarray.

[3] = biological target: T1, CD94/NKG2A on cells (Ba/F3-CD94/NKG2A; …); experiment: flow cytometry on Ba/F3-CD94/NKG2A cells, APC-conjugated secondary antibody specific for human antibodies
Description: The specificity and efficacy of humZ270VL1/VH1, and various humZ270VL1/VH1 variants with back-mutations in the variable light (VL) or variable heavy (VH) regions were tested for binding to CD94/NKG2A in flow-cytometry. For this, Ba/F3-CD94/NKG2A cells were incubated with humZ270-L46F (VL), humZ270-148V (VL), humZ270-L46F/148V (VL), humZ270-V5Q (VH), humZ270-M69L (VH), humZ270-T71V (VH), humZ270-T73K (VH), humZ270-T75S (VH), humZ270-V5Q/M69L/T71V/T73K/T75S (VH), humZ270-M69L/T71V/T73K/T75S (VH) or two different batches of humZ270VL1/VH1 without back-mutations (“DK” and “CHN”). For this purpose, Ba/F3-CD94/NKG2A or -C cells were incubated with various concentrations of the humZ270 variants in tissue-culture medium containing 2% FCS, for at least 30 minutes on ice. The cells were then washed, and incubated in similar medium with APC conjugated secondary antibodies specific for human antibodies, again for at least 30 minutes on ice. After two times washing with ice-cold PBS, the binding of secondary antibodies to cells was visualized using a BD Biosciences FACSarray.

[4] = biological target: single-chain NKG2A-CD94-mFc construct (human) (UniProt Q13241); experiment: SPR (Biacore T100); sc-NKG2A-CD94-mFc on CM5 chip, mutant at 0.75 nM or 1.5 nM
[5] = biological target: T1, CD94/NKG2A on cells (Ba/F3-CD94/NKG2A; …); experiment: flow cytometry on Ba/F3-CD94/NKG2A cells, APC-conjugated secondary antibody
Description: The strength and specificity of humZ270 binding to CD94/NKG2A was tested in flow-cytometry, by analyzing the binding of in HEK293 cells produced wild-type Z270 (recZ270), chimeric Z270 with human IgG4 (chimZ270) or humanized Z270 (humZ270VL1/VH1) to Ba/F3 cells stably over-expressing either CD94/NKG2A or CD94/NKG2C. For this purpose, Ba/F3-CD94/NKG2A and -C cells were incubated with various concentrations of Z270 variants in tissue-culture medium containing 2% FCS, for at least 30 minutes on ice. Subsequently cells were washed, and the cells incubated in similar medium with APC conjugated secondary Ab's, again for at least 30 minutes on ice. After two times washing with ice-cold PBS, the binding of mAb's to cells was visualized using a BD Biosciences FACSarray.

T1 sequence (chain, as listed by the source limits assumed, chain 1 of 2): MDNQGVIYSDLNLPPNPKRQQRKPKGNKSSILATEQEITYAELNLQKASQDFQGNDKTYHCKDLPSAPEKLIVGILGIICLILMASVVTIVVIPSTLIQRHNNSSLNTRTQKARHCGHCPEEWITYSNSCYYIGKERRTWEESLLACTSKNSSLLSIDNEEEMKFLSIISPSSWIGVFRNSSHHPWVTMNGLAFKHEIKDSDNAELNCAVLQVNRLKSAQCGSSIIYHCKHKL
T1 sequence (Q13241 whole entry, chain 2 of 2): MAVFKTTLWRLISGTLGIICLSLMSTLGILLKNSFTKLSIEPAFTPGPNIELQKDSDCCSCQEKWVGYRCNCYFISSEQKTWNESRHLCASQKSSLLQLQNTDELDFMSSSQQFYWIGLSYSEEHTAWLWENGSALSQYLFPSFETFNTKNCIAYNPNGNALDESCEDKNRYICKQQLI

B2: chimeric Z270 antibody (antibody, human IgG4, V domains shown)
VH: QVQLQQPGAELVRPGASVKLSCKASGYTFTSYWMNWVKQRPEQGLQWIGRIDPYDSETHYSQKFKDKAILTVDKSSSTAYMRLSSLTSEDSAVYYCARGGYDFDVGTLYWFFDVWGAGTTVTVS
VL: DIQMTQSPASLSASVGETVTITCRASENIYSYLAWYQQKQGKSPQFLVYNAKTLAEGVPSRFSGSGSGTQFSLKINSLQPEDFGSYYCQHHYGTPRTFGGGTKLEIK
- Kd [1]: 0.0498 nM
- koff [1]: 0.000397 s⁻¹
- kon [1]: 7.97e+06 M⁻¹ s⁻¹

B3: Z270VH alanine mutant R94A (antibody, name in Kabat numbering, V domains shown)
VH: B2 VH with R98A
VL: B2 VL
- relative binding (binding level in RU divided by that of chimZ270) [4]: 20%

Now from value to binder:

- Kd [1]: 0.0665 nM
- koff [1]: 0.000498 s⁻¹
- kon [1]: 7.49e+06 M⁻¹ s⁻¹
- EC50 (read off the curve) [2]: ~30 ng/mL
- EC50 (read off the curve) [3]: ~10 ng/mL and ~8 ng/mL
B1: humZ270VL1/VH1 (antibody, human IgG4, V domains shown)
VH: QVQLVQSGAEVKKPGASVKVSCKASGYTFTSYWMNWVRQAPGQGLEWMGRIDPYDSETHYAQKLQGRVTMTTDTSTSTAYMELRSLRSDDTAVYYCARGGYDFDVGTLYWFFDVWGQGTTVTVS
VL: DIQMTQSPSSLSASVGDRVTITCRASENIYSYLAWYQQKPGKAPKLLIYNAKTLAEGVPSRFSGSGSGTDFTLTISSLQPEDFATYYCQHHYGTPRTFGGGTKVEIK
notes: No back-mutations; also called hZ270VL1/VH1; huZ270 with a humZ270VH1 heavy chain

- EC50 (read off the curve) [5]: ~1 ng/mL
B4: wild-type Z270 produced in HEK293 cells (recZ270) (antibody, mouse IgG1, V domains shown)
VH: B2 VH
VL: B2 VL
notes: also called recombinant Z270
